According to the supplement of paper PMC9732359:
± gives the uncertainty stated by the source.

Assay: protein stability index of a GFP-peptide fusion (yeast GPS) (PSI 1-4); higher = more stable; sorted into four equal gates, so the index is relative within each strain
How it was run: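 Plasmids isolated from each sorting gate were PCR-amplified and Illumina-sequenced, and barcodes assigned the reads to strains. The gates, four of equal size, were set by GFP/Cherry fluorescence ratio on mid-log cultures in leucine-free medium. These cultures were yeast carrying a pooled library of tiled 17-residue yeast protein peptides fused downstream of GFP on a plasmid that also expresses Cherry. The protein stability index is the sum of every gate's read frequency times its gate number.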

| Sequence | protein stability index (doa10∆) | protein stability index (pdr5∆) | protein stability index (san1∆) | protein stability index (ubr1∆) |
| --- | --- | --- | --- | --- |
| LLTNFHGMDFTTDKLRS [RPS1A] | 2.52 ± 0.1 | 3.02 ± 0.084 | 2.84 ± 0.097 | 2.81 ± 0.077 |
| YGNPTSKESWRYDWYQP [RTT102] | 2.05 ± 0.1 | 2.27 ± 0.082 | 2 ± 0.071 | 2.03 ± 0.035 |
| DEDKNFPRSRSRSRSSI [ESC2] | 3.13 ± 0.15 | 3.25 ± 0.14 | 3.12 ± 0.14 | 3.27 ± 0.07 |
| VSDSEIIDLNLHSFTKQ [POP6] | 2.72 ± 0.061 | 2.85 ± 0.062 | 2.41 ± 0.061 | 2.73 ± 0.044 |
| QQQIIKIRITLTSTKVK [RPS20] | 1.91 ± 0.056 | 1.84 ± 0.048 | 1.59 ± 0.1 | 2.71 ± 0.043 |
| QLESIYFRILLPYERHM [SWI1] | 1.88 ± 0.055 | 1.83 ± 0.046 | 1.68 ± 0.067 | 1.9 ± 0.053 |
| SNTTTQIQFTPLIKKIK [SMC3] | 2.2 ± 0.088 | 2.46 ± 0.045 | 2.71 ± 0.095 | 2.37 ± 0.07 |
| NAGTEKEKESKKDSKPA [YLR335W/NUP2] | 3.31 ± 0.084 | 3.15 ± 0.074 | 3.54 ± 0.056 | 3.42 ± 0.05 |
| KRITQITIEPGVDVEVV [RPS20] | 2.7 ± 0.089 | 1.78 ± 0.17 | 2.81 ± 0.15 | 2.6 ± 0.09 |
| GFNSIWKIPQNDIPQTE [SSN2] | 3.09 ± 0.19 | 3.28 ± 0.28 | 3.18 ± 0.15 | 3.25 ± 0.076 |
| RALFETKLNLHCVIEDD [RRI1] | 2.36 ± 0.11 | 2.8 ± 0.071 | 2.8 ± 0.057 | 2.29 ± 0.1 |
| LLTNDESAFENLMGNRN [SNF12] | 2.96 ± 0.14 | 2.7 ± 0.12 | 3 ± 0.19 | 3.14 ± 0.078 |
| PYKYRLREEIFIANEGV [RPL2A] | 2.88 ± 0.096 | 2.94 ± 0.085 | 2.29 ± 0.067 | 2.86 ± 0.054 |
| VEEDHTLGNALRYVIMK [RPC19] | 3.08 ± 0.11 | 2.75 ± 0.071 | 2.54 ± 0.085 | 2.73 ± 0.063 |
| LHYTPIEDLWQFLYEKH [RPC82] | 2.24 ± 0.13 | 2.28 ± 0.13 | 2.14 ± 0.12 | 2.4 ± 0.16 |
| AETDYVDPKRLAMVIIK [DSN1] | 3.13 ± 0.066 | 3.35 ± 0.074 | 3.03 ± 0.056 | 3.53 ± 0.06 |
| TRAKIGGLNDPRLGSID [RPO21] | 3.03 ± 0.11 | 2.22 ± 0.077 | 2.58 ± 0.098 | 2.37 ± 0.083 |
| AGGPDMTTPQNISSSQQ [DSN1] | 2.83 ± 0.044 | 3.04 ± 0.04 | 2.83 ± 0.037 | 2.93 ± 0.04 |
| IVNVLSKCLNLISDSNI [SWI3] | 2.05 ± 0.043 | 1.77 ± 0.038 | 1.65 ± 0.073 | 2 ± 0.029 |
| RVNGSEFVHKYLGEGPR [RPT3] | 2.45 ± 0.057 | 2.88 ± 0.063 | 2.79 ± 0.056 | 3 ± 0.061 |

| Sequence | protein stability index (doa10∆) | protein stability index (pdr5∆) | protein stability index (san1∆) | protein stability index (ubr1∆) |
| --- | --- | --- | --- | --- |
| EVVEVQEETVVEQTAEV [RPS12] | 3.15 ± 0.1 | 3.36 ± 0.11 | 2.97 ± 0.076 | 3.24 ± 0.097 |
| QDQYKEGIKVVDIDDPD [SNF2] | 2.97 ± 0.16 | 2.45 ± 0.086 | 2.13 ± 0.071 | 2.54 ± 0.073 |
| DVETVKREIQEALSEKP [RPC53] | 3.27 ± 0.15 | 3.42 ± 0.12 | 3.17 ± 0.13 | 3.35 ± 0.1 |
| NGVVKKAAAGAGSAALK [RPO31] | 3.51 ± 0.13 | 3.11 ± 0.27 | 3.47 ± 0.12 |  |
| MDTSDDAFVATAFATEF [DLS1] | 2.82 ± 0.07 | 3.08 ± 0.09 | 2.75 ± 0.081 | 2.8 ± 0.044 |
| LDPYERAIYSYLSGAIP [YDL116W/NUP84] | 2.83 ± 0.12 | 3.11 ± 0.082 | 3.13 ± 0.098 | 3.11 ± 0.13 |
| EAIETCKNFEKTQLGST [GAL11] | 2.51 ± 0.13 | 3.1 ± 0.19 |  | 3.36 ± 0.24 |
| RPFEGLFVISTEISPMA [RRP45] | 2.67 ± 0.048 | 2.87 ± 0.049 | 3.04 ± 0.061 | 2.86 ± 0.037 |
| SLTPTQSDSAKVEIKKV [PRP28] | 3.01 ± 0.12 | 3.39 ± 0.069 | 2.92 ± 0.093 | 3.1 ± 0.06 |
| ELRYQSHILNSHSLALN [DSN1] | 2.29 ± 0.066 | 2.66 ± 0.058 | 2.63 ± 0.057 | 2.66 ± 0.049 |
| SSKPAFNLISNAGTEKE [YLR335W/NUP2] | 3.13 ± 0.094 | 2.95 ± 0.098 | 3.13 ± 0.065 | 3.07 ± 0.061 |
| FYMLNAGIRPKFILALN [RPN1] | 2.22 ± 0.16 | 1.81 ± 0.078 | 1.78 ± 0.085 | 1.37 ± 0.058 |
| DNHSGDATANATANATA [DSN1] | 3.22 ± 0.12 | 3.08 ± 0.064 | 3.32 ± 0.089 | 3.13 ± 0.071 |
| INLNVDDDILIIRPILG [SRB4] | 3.42 ± 0.15 | 3.07 ± 0.1 | 3.21 ± 0.059 | 3.21 ± 0.057 |
| TNDRLNREAATKEVESN [DIS3] | 2.79 ± 0.14 | 2.58 ± 0.096 | 2.62 ± 0.12 | 3.1 ± 0.1 |
| PDEAIEKVFNAYPAARE [FAS1] | 2.94 ± 0.099 | 3.22 ± 0.1 | 3.11 ± 0.059 | 3.1 ± 0.093 |
| ANETDKRPTPPSFTFGG [YOR098C/NUP1] | 3.01 ± 0.042 | 3.18 ± 0.047 | 2.96 ± 0.037 | 3.1 ± 0.033 |
| LCHPKKEKYGLAVSTIL [SMC1] | 2.29 ± 0.063 | 2.31 ± 0.063 | 2.23 ± 0.091 | 2.15 ± 0.048 |
| FTPEEEAAIRRENEWAE [SKP1] | 3.01 ± 0.11 | 3.25 ± 0.096 | 3.34 ± 0.063 | 3.3 ± 0.11 |
